In patent US20150246136A1 (Bayer, published 2015):
Where “and” joins values, the source holds several entries; their conditions need not be identical. Identical values can stand only once.

Target: Mesothelin (SwissProt reference Q13421-3) (Homo sapiens, UniProt Q13421 37-622)
Assay: cell-based or functional assay

Row | Binder | IC50 (nM), HT29 meso+ cells, MTT proliferation assay
1 | Example 56, conjugate of anti-mesothelin antibody MF-Ta (antibody, human IgG1, lambda, V domains shown, toxophore-linker on Cys sulfur, sites not given) VH: QVELVQSGAEVKKPGESLKISCKGSGYSFTSYWIGWVRQAPGKGLEWMGIIDPGDSRTRYSPSFQGQVTISADKSISTAYLQWSSLKASDTAMYYCARGQLYGGTYMDGWGQGTLVTVSS VL: DIALTQPASVSGSPGQSITISCTGTSSDIGGYNSVSWYQQHPGKAPKLMIYGVNNRPSGVSNRFSGSKSGNTASLTISGLQAEDEADYYCSSYDIESATPVFGGGTKLTVLG | 0.17 nM
2 | Example 57, conjugate of anti-mesothelin antibody MF-Ta (antibody, human IgG1, lambda, V domains shown, toxophore-linker on Cys sulfur, sites not given) VH: QVELVQSGAEVKKPGESLKISCKGSGYSFTSYWIGWVRQAPGKGLEWMGIIDPGDSRTRYSPSFQGQVTISADKSISTAYLQWSSLKASDTAMYYCARGQLYGGTYMDGWGQGTLVTVSS VL: DIALTQPASVSGSPGQSITISCTGTSSDIGGYNSVSWYQQHPGKAPKLMIYGVNNRPSGVSNRFSGSKSGNTASLTISGLQAEDEADYYCSSYDIESATPVFGGGTKLTVLG | 0.4 nM
3 | Example 61, conjugate of anti-mesothelin antibody MF-Ta (antibody, human IgG1, lambda, V domains shown, toxophore-linker on Cys sulfur, sites not given) VH: QVELVQSGAEVKKPGESLKISCKGSGYSFTSYWIGWVRQAPGKGLEWMGIIDPGDSRTRYSPSFQGQVTISADKSISTAYLQWSSLKASDTAMYYCARGQLYGGTYMDGWGQGTLVTVSS VL: DIALTQPASVSGSPGQSITISCTGTSSDIGGYNSVSWYQQHPGKAPKLMIYGVNNRPSGVSNRFSGSKSGNTASLTISGLQAEDEADYYCSSYDIESATPVFGGGTKLTVLG | 0.019 nM
4 | Example 62, conjugate of anti-mesothelin antibody MF-Ta (antibody, human IgG1, lambda, V domains shown, toxophore-linker on Cys sulfur, sites not given) VH: QVELVQSGAEVKKPGESLKISCKGSGYSFTSYWIGWVRQAPGKGLEWMGIIDPGDSRTRYSPSFQGQVTISADKSISTAYLQWSSLKASDTAMYYCARGQLYGGTYMDGWGQGTLVTVSS VL: DIALTQPASVSGSPGQSITISCTGTSSDIGGYNSVSWYQQHPGKAPKLMIYGVNNRPSGVSNRFSGSKSGNTASLTISGLQAEDEADYYCSSYDIESATPVFGGGTKLTVLG | 20 nM
5 | Example 60, conjugate of anti-mesothelin antibody MF-Ta (antibody, human IgG1, lambda, V domains shown, toxophore-linker on Cys sulfur, sites not given) VH: QVELVQSGAEVKKPGESLKISCKGSGYSFTSYWIGWVRQAPGKGLEWMGIIDPGDSRTRYSPSFQGQVTISADKSISTAYLQWSSLKASDTAMYYCARGQLYGGTYMDGWGQGTLVTVSS VL: DIALTQPASVSGSPGQSITISCTGTSSDIGGYNSVSWYQQHPGKAPKLMIYGVNNRPSGVSNRFSGSKSGNTASLTISGLQAEDEADYYCSSYDIESATPVFGGGTKLTVLG | 0.06 nM and 0.16 nM
6 | Example 58, conjugate of anti-mesothelin antibody MF-Ta (antibody, human IgG1, lambda, V domains shown, toxophore-linker on Lys NH, sites not given) VH: QVELVQSGAEVKKPGESLKISCKGSGYSFTSYWIGWVRQAPGKGLEWMGIIDPGDSRTRYSPSFQGQVTISADKSISTAYLQWSSLKASDTAMYYCARGQLYGGTYMDGWGQGTLVTVSS VL: DIALTQPASVSGSPGQSITISCTGTSSDIGGYNSVSWYQQHPGKAPKLMIYGVNNRPSGVSNRFSGSKSGNTASLTISGLQAEDEADYYCSSYDIESATPVFGGGTKLTVLG | 5 nM
7 | Example 59, conjugate of anti-mesothelin antibody MF-Ta (antibody, human IgG1, lambda, V domains shown, toxophore-linker on Lys NH, sites not given) VH: QVELVQSGAEVKKPGESLKISCKGSGYSFTSYWIGWVRQAPGKGLEWMGIIDPGDSRTRYSPSFQGQVTISADKSISTAYLQWSSLKASDTAMYYCARGQLYGGTYMDGWGQGTLVTVSS VL: DIALTQPASVSGSPGQSITISCTGTSSDIGGYNSVSWYQQHPGKAPKLMIYGVNNRPSGVSNRFSGSKSGNTASLTISGLQAEDEADYYCSSYDIESATPVFGGGTKLTVLG | 1 nM

Second part, the binder after the results:

Row | IC50 (nM), HT29 meso+ cells, MTT proliferation assay | Binder
8 | 1.5 nM | Example 66, conjugate of anti-mesothelin antibody MF-Ta (antibody, human IgG1, lambda, V domains shown, toxophore-linker on Cys sulfur, sites not given) VH: QVELVQSGAEVKKPGESLKISCKGSGYSFTSYWIGWVRQAPGKGLEWMGIIDPGDSRTRYSPSFQGQVTISADKSISTAYLQWSSLKASDTAMYYCARGQLYGGTYMDGWGQGTLVTVSS VL: DIALTQPASVSGSPGQSITISCTGTSSDIGGYNSVSWYQQHPGKAPKLMIYGVNNRPSGVSNRFSGSKSGNTASLTISGLQAEDEADYYCSSYDIESATPVFGGGTKLTVLG
9 | 0.03 nM | Example 63, conjugate of anti-mesothelin antibody MF-Ta (antibody, human IgG1, lambda, V domains shown, toxophore-linker on Cys sulfur, sites not given) VH: QVELVQSGAEVKKPGESLKISCKGSGYSFTSYWIGWVRQAPGKGLEWMGIIDPGDSRTRYSPSFQGQVTISADKSISTAYLQWSSLKASDTAMYYCARGQLYGGTYMDGWGQGTLVTVSS VL: DIALTQPASVSGSPGQSITISCTGTSSDIGGYNSVSWYQQHPGKAPKLMIYGVNNRPSGVSNRFSGSKSGNTASLTISGLQAEDEADYYCSSYDIESATPVFGGGTKLTVLG
10 | 2 nM | Example 68, conjugate of anti-mesothelin antibody MF-Ta (antibody, human IgG1, lambda, V domains shown, toxophore-linker on Cys sulfur, sites not given) VH: QVELVQSGAEVKKPGESLKISCKGSGYSFTSYWIGWVRQAPGKGLEWMGIIDPGDSRTRYSPSFQGQVTISADKSISTAYLQWSSLKASDTAMYYCARGQLYGGTYMDGWGQGTLVTVSS VL: DIALTQPASVSGSPGQSITISCTGTSSDIGGYNSVSWYQQHPGKAPKLMIYGVNNRPSGVSNRFSGSKSGNTASLTISGLQAEDEADYYCSSYDIESATPVFGGGTKLTVLG
11 | 0.07 nM | Example 69, conjugate of anti-mesothelin antibody MF-Ta (antibody, human IgG1, lambda, V domains shown, toxophore-linker on Cys sulfur, sites not given) VH: QVELVQSGAEVKKPGESLKISCKGSGYSFTSYWIGWVRQAPGKGLEWMGIIDPGDSRTRYSPSFQGQVTISADKSISTAYLQWSSLKASDTAMYYCARGQLYGGTYMDGWGQGTLVTVSS VL: DIALTQPASVSGSPGQSITISCTGTSSDIGGYNSVSWYQQHPGKAPKLMIYGVNNRPSGVSNRFSGSKSGNTASLTISGLQAEDEADYYCSSYDIESATPVFGGGTKLTVLG
12 | 0.015 nM | Example 67, conjugate of anti-mesothelin antibody MF-Ta (antibody, human IgG1, lambda, V domains shown, toxophore-linker on Cys sulfur, sites not given) VH: QVELVQSGAEVKKPGESLKISCKGSGYSFTSYWIGWVRQAPGKGLEWMGIIDPGDSRTRYSPSFQGQVTISADKSISTAYLQWSSLKASDTAMYYCARGQLYGGTYMDGWGQGTLVTVSS VL: DIALTQPASVSGSPGQSITISCTGTSSDIGGYNSVSWYQQHPGKAPKLMIYGVNNRPSGVSNRFSGSKSGNTASLTISGLQAEDEADYYCSSYDIESATPVFGGGTKLTVLG
13 | 0.11 nM | Example 64, conjugate of anti-mesothelin antibody MF-Ta (antibody, human IgG1, lambda, V domains shown, toxophore-linker on Cys sulfur, sites not given) VH: QVELVQSGAEVKKPGESLKISCKGSGYSFTSYWIGWVRQAPGKGLEWMGIIDPGDSRTRYSPSFQGQVTISADKSISTAYLQWSSLKASDTAMYYCARGQLYGGTYMDGWGQGTLVTVSS VL: DIALTQPASVSGSPGQSITISCTGTSSDIGGYNSVSWYQQHPGKAPKLMIYGVNNRPSGVSNRFSGSKSGNTASLTISGLQAEDEADYYCSSYDIESATPVFGGGTKLTVLG
14 | 0.02 nM | Example 70, conjugate of anti-mesothelin antibody MF-Ta (antibody, human IgG1, lambda, V domains shown, toxophore-linker on Cys sulfur, sites not given) VH: QVELVQSGAEVKKPGESLKISCKGSGYSFTSYWIGWVRQAPGKGLEWMGIIDPGDSRTRYSPSFQGQVTISADKSISTAYLQWSSLKASDTAMYYCARGQLYGGTYMDGWGQGTLVTVSS VL: DIALTQPASVSGSPGQSITISCTGTSSDIGGYNSVSWYQQHPGKAPKLMIYGVNNRPSGVSNRFSGSKSGNTASLTISGLQAEDEADYYCSSYDIESATPVFGGGTKLTVLG
15 | 0.14 nM | Example 65, conjugate of anti-mesothelin antibody MF-Ta (antibody, human IgG1, lambda, V domains shown, toxophore-linker on Cys sulfur, sites not given) VH: QVELVQSGAEVKKPGESLKISCKGSGYSFTSYWIGWVRQAPGKGLEWMGIIDPGDSRTRYSPSFQGQVTISADKSISTAYLQWSSLKASDTAMYYCARGQLYGGTYMDGWGQGTLVTVSS VL: DIALTQPASVSGSPGQSITISCTGTSSDIGGYNSVSWYQQHPGKAPKLMIYGVNNRPSGVSNRFSGSKSGNTASLTISGLQAEDEADYYCSSYDIESATPVFGGGTKLTVLG
